Values quoted from earlier work in patent publication US10227617B2, “Sequestration of carbon dioxide with hydrogen to useful products” (UNIVERSITY OF GEORGIA RESEARCH FOUNDATION, INC., priority 2012, dated 2019).

Conditions: reported data, FIG. 4; cited from earlier work

B1: Msed_1456: M. sedula 3-hydroxypropionate:CoA ligase, SEQ ID NO:6 (protein, listed as Metallosphaera sedula)
chain: MFMRYIMVEEQTLKTGSQELEEKADYNMRYYAHLMKLSKEKPAEFWGSLAQDLLDWYEPWKETMRQEDPMTRWFIGGKINASYNAVDRHLNGPRKFKAAVIWESELGERKIVTYQDMFYEVNRWANALRSLGVGKGDRVTIYMPLTPEGIAAMLASARIGAIHSVIFAGFGSQAIADRVEDAKAKVVITADAYPRRGKVVELKKTVDEALNSLGERSPVQHVLVYRRMKTDVNMKEGRDVFFDEVGKYRYVEPERMDSNDPLFILYTSGTTGKPKGIMHSTGGYLTGTAVMLLWSYGLSQENDVLFNTSDIGWIVGHSYITYSPLIMGRTVVIYESAPDYPYPDKWAEIIERYRATTFGTSATALRYFMKYGDEYVKNHDLSSIRIIVTNGEVLNYSPWKWGLEVLGGGKVFMSHQWWQTETGAPNLGYLPGIIYMPMKSGPASGFPLPGNFVEVLDENGNPSAPRVRGYLVMRPPFPPNMMMGMWNDNGERLKKTYFSKFGSLYYPGDFAMVDEDGYIWVLGRADETLKIAAHRIGAGEVESAITSHPSVAEAAVIGVPDSVKGEEVHAFVVLKQGYAPSSELAKDIQSHVRKVMGPIVSPQIHFVDKLPKTRSGKVMRRVIKAVMMGSSAGDLTTIEDEASMDEIKKAVEELKKELKTS
  activity on 3-hydroxybutyrate: > 1%
